Here are results for four molecules from patent US20140248666A1 (Amgen, published 2014).

The target of assay [1] is T1, human sclerostin, mature form (signal peptide removed) (human, UniProt Q9BQB4 24-213).
T1 construct: 190 amino acid glycoprotein with four disulfide bonds (C1-C5, C2-C6, C3-C7, C4-C8); also called SOST; recombinant human sclerostin
T1 sequence: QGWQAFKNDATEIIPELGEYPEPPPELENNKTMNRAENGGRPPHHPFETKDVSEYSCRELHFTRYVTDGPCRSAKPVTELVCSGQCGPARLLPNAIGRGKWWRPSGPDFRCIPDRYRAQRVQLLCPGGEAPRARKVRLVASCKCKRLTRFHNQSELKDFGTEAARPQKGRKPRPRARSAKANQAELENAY
In words: Biacore human sclerostin peptide epitope competition binding assay: 2 nM Mab injected over human sclerostin immobilised on a CM5 chip, alone or after preincubation with 20 nM soluble human sclerostin. Here is the method: (§1) Immobilization of mature form human sclerostin to a BIAcore sensor chip (CM5) surface was performed according to manufacturer's instructions. Briefly, carboxyl groups on the sensor chip surfaces were activated by injecting 60 μL of a mixture containing 0.2 M N-ethyl-N′-(dimethylaminopropyl) carbodiimide (EDC) and 0.05 M N-hydroxysuccinimide (NHS). Human sclerostin was diluted in 10 mM sodium acetate, pH 4.0 at a concentration of 20 μg/mL followed by injecting over the activated CM5 surface. Excess reactive groups on the surfaces were deactivated by injecting 60 μL of 1M ethanolamine. Final immobilized levels were ˜5000 resonance units (RU) for the human sclerostin surface. A blank, mock-coupled reference surface was also prepared on the sensor chips.
On the technique in general: In SPR one partner is held on a chip, and binding of the other changes the refractive index at the surface.

Assay [2] concerns the target T2, human sclerostin tryptic peptide T20.6 (human).
T2 chain 1: DVSEYSCRELHFTR
T2 chain 2: SAKPVTELVCSGQCGPAR
T2 chain 3: WWRPSGPDFRCIPDRYR
T2 chain 4: LVASCKCKRLTR
Put plainly: Biacore human sclerostin peptide epitope competition binding assay: 2 nM Mab preincubated with 20 nM peptide in solution, then injected over immobilised human sclerostin; loss of Ru signal means the Mab bound the peptide. Here is the method: as §1

For assay [3], the target named is T3, human sclerostin tryptic peptide T19.2 (Interchain disulfide C2-C6 (Cys71-Cys125 of SEQ ID NO:1): chain 1 pos 7 to chain 2 pos 5.).
T3 construct: Two peptides linked by the C2-C6 disulfide bond
T3 peptide 1: YVTDGPCR
T3 peptide 2: VQLLCPGGEAPR
In words: Biacore human sclerostin peptide epitope competition binding assay: 2 nM Mab preincubated with 20 nM peptide in solution, then injected over immobilised human sclerostin; unchanged Ru signal means the Mab did not bind the peptide. Here is the method: as §1

The target of assay [4] is T4, human sclerostin AspN peptide AspN18.6 (FIG. 12 labels it '(Glycopeptide)'. The glycan site is not stated. The only N-X-T sequon is NKT, so the glycosylated residue is probably Asn at chain 1 pos 22, written N.).
T4 peptide: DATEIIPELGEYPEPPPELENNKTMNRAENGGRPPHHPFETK
The description is as above. As to the method:
as §1

Assay [5] deals with T2, human sclerostin tryptic peptide T20.6. The assay is described as above. Here is the method:
as §1

In assay [6] the target is T1, human sclerostin, mature form (signal …). In words: Biacore cross-blocking, human sclerostin on CM5 chip; mixed with competitor Ab-3, each 1.3 uM binding sites. As to the method:
(§2) Human sclerostin was coupled to a CM5 Biacore chip using standard amine coupling chemistry to generate a sclerostin coated surface. 300 resonance units of sclerostin were coupled to the surface.
(§3) 20 μL of the test mixture was passed over the sclerostin-coated chip at a flow rate of 10 μL/min and the amount of binding recorded. The chip was then treated with two 60 second pulses of 30 mM HCl to remove all of the bound antibody. A solution containing only one of the antibodies of the test mixture (at 1.3 μM in the same buffer as the test mixture on a binding site basis) was then passed over the chip in the same manner as the test mixture and the amount of binding recorded. The chip was again treated to remove all of the bound antibody and finally a solution containing the other antibody from the test mixture alone (at 1.3 μM in the same buffer as the test mixture on a binding site basis) was passed over the chip and the amount of binding recorded.
(§4) The table below show the results from cross-blocking assays on a range of different antibodies. The values in each square of the table represent the amount of binding (in RU) seen when the antibodies (at 1.3 μM on a binding site basis) or buffer indicated in the top row of the table were mixed with the antibodies (at 1.3 uM on a binding site basis) or buffer indicated in the first column of the table.

Assay [7] shares this target. In words: Biacore cross-blocking, human sclerostin on CM5 chip; mixed with competitor Ab-4, each 1.3 uM binding sites. As to the method:
as §2, §3, §4

The target is the same in assay [8]. In words: Biacore cross-blocking, human sclerostin on CM5 chip; mixed with competitor Ab-13, each 1.3 uM binding sites. Here is the method: as §2
(§5) The antibodies to be tested were diluted to a concentration of 200 ug/ml in HBS-EP buffer (being 10 mM HEPES pH 7.4, 150 mM NaCl, 3 mM EDTA, 0.005% (v/v) Surfactant P20) and then mixed in a one to one molar ratio (on a binding site basis) to generate the test mixture. This test mixture thus contained each antibody at a concentration of 100 ug/ml (1.3 um on a binding site basis). Separate solutions containing each of the antibodies in the test mix alone were also prepared. These solutions contained the individual antibodies in HBS-EP buffer at a concentration of 100 ug/ml (1.3 um on a binding site basis).
as §3

The target is the same in assay [9]. Put plainly: Biacore cross-blocking, human sclerostin on CM5 chip; mixed with competitor Ab-19, each 1.3 uM binding sites. Here is the method:
as §2, §5, §3

For assay [10] the target is unchanged. In words: Biacore cross-blocking on human sclerostin; mixture with competitor Ab-3, mean RU against the sum of each alone. Here is the method: as §2, §5, §3
Assay [11] shares this target. Put plainly: Biacore cross-blocking on human sclerostin; mixture with competitor Ab-19, mean RU against the sum of each alone. Here is the method: as §2, §5, §3

B1: Antibody C (antibody, mouse IgG1, kappa, V domains shown)
VH: EVQLQQSGPELVKPGTSVKMSCKASGYTFTDCYMNWVKQSHGKSLEWIGDINPFNGGTTYNQKFKGKATLTVDKSSSTAYMQLNSLTSDDSAVYYCARSHYYFDGRVPWDAMDYWGQGTSVTVSS
VL: DIVLTQSPASLTVSLGLRATISCKASQSVDYDGDSYMNWYQQKPGQPPKLLIYAASNLESGIPARFSGNGSGTDFTLNIHPVEEEDAVTYYCQQSNEDPWTFGGGTKLEIKR
notes: Mouse antibody; mature chains; also called Ab-C; Mab-C
Regarding B1, the binding result is reported as “binds” in [1], “binds” in assay [2], “no binding (tested: 20 nM)” in assay [3] and “no binding (tested: 20 nM)” in assay [4].

B2: Antibody B (antibody, mouse IgG1, kappa, V domains shown)
VH: QVTLKESGPGILQPSQTLSLTCSFSGFSLSTSGMGVGWIRHPSGKNLEWLAHIWWDDVKRYNPVLKSRLTISKDTSNSQVFLKIANVDTADTATYYCARIEDFDYDEEYYAMDYWGQGTSVIVSS
VL: QIVLTQSPTIVSASPGEKVTLICSASSSVSFVDWFQQKPGTSPKRWIYRTSNLGFGVPARFSGGGSGTSHSLTISRMEAEDAATYYCQQRSTYPPTFGAGTKLELKR
notes: Mouse antibody; mature chains; also called Ab-B; Mab-B
In the case of B2, the binding result in [1] is recorded as “binds”; in [3], “no binding (tested: 20 nM)”; in [5], “no binding (tested: 20 nM)”; in assay [4], “no binding (tested: 20 nM)”.

B3: Antibody D (antibody, mouse IgG1, kappa, V domains shown)
VH: EVQLQQSGPELVTPGASVKISCKASGYTFTDHYMSWVKQSHGKSLEWIGDINPYSGETTYNQKFKGTATLTVDKSSSIAYMEIRGLTSEDSAVYYCARDDYDASPFAYWGQGTLVTVSA
VL: DVQMIQSPSSLSASLGDIVTMTCQASQGTSINLNWFQQKPGKAPKLLIYGSSNLEDGVPSRFSGSRYGTDFTLTISSLEDEDLATYFCLQHSYLPYTFGGGTKLEIKR
notes: Mouse antibody; mature chains; also called Ab-D; Mab-D
Take B3: the binding result was “binds” in assay [1], “binds” in assay [2], “no binding (tested: 20 nM)” in assay [3] and “no binding (tested: 20 nM)” in assay [4].

B4: Antibody A (antibody, mouse IgG1, kappa, V domains shown)
VH: QSLEESGGRLVTPGTPLTLTCTASGFSLSSYWMNWVRQAPGEGLEWIGTIDSGGRTDYASWAKGRFTISRTSTTMDLKMTSLTTGDTARYFCARNWNLWGQGTLVTVSS
VL: AQVLTQTPASVSAAVGGTVTINCQSSQSVYDNNWLAWFQQKPGQPPKLLIYDASDLASGVPSRFSGSGSGTQFTLTISGVQCADAATYYCQGAYNDVIYAFGGGTEVVVKR
notes: Rabbit-mouse chimeric antibody; mature chains (signal peptides cleaved off); also called Ab-A; Mab-A
For B4, the “amount of binding (RU)” value in assay [6] amounted to 946 RU; in assay [7] it was 833 RU; in assay [8], 1080 RU; in [9], 868 RU. For the same molecule, the entries for the “percentage of the theoretical binding” value in assay [10] and in assay [11] were 93.5% and 65%, respectively. For the same molecule, the binding result in assay [3], in assay [5] and in assay [4] was “no binding (tested: 20 nM)” throughout.
